# Where two headings read alike, the source gives them in different places.
# Tested on: Immunoglobulin E (IgE) (Homo sapiens), P01854-1
# Assay: filter
# [1] = 2'-OMe/2'-deoxy mix, 3:21 pair changed, DPBS Mg/Ca, 0.1 mg/mL BSA, RT
# Immunoglobulin E (IgE) (Homo sapiens), P01854-1, sequence (P01854 other isoform, or with tags, fused parts or gaps): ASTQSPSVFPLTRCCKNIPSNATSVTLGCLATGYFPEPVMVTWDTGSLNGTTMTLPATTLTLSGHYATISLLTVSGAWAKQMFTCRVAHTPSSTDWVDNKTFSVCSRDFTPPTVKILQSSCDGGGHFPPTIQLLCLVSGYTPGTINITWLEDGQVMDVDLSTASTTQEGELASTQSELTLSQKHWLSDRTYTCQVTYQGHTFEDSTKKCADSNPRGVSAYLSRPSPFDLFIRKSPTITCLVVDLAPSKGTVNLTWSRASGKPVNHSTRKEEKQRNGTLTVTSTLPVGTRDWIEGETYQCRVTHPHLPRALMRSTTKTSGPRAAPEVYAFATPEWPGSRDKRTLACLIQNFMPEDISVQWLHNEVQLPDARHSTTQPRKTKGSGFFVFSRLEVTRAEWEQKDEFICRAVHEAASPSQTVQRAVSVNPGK
sequence,measurement,setting,value
AGCCUGGGGACCCAUGGGGGGCU [ARC3270],Kd,"ARC1666 pattern with 2'-OMe G9 and extra PS after G21, C22 and U23, 3' idT [dI (written G) at 16,18,20, 2'-OMe 1-5,7,9,10-15,17,22,23, deoxy 6,8,16,18-21, PS 8/9,15/16,16/17,18/19,20/21,21/22,22/23,23/idT, 3' inverted dT left out], dPBS Ca/Mg + BSA, RT",0.04 nM
GGGGCTACTTTATCCGTTCCTCCTAGTGGGTAGCCCCT [ARC1304],Kd,"2'-OMe at 1-4,34-37, 3' idT [2'-OMe: 1-4,34-37, 38 = 3' inverted dT], DPBS Mg/Ca, BSA",0.6 nM
AGACUGGGGACCCAUGGGGGUCU [ARC1249],Kd,[1],130 nM
GGGAAAAGCGAAUCAUACACAAGACGUGAGCAUAUCAUUGAGUGUAGUGGUUCCGGAGUAAGUCGCUCCGCCAGAGACCAACCGAGAA [rRfY clone SEQ 15],Kd,"2'-F C and U, biphasic, KD2 19.0 nM, 1xSHMCK + tRNA, RT",0.115 nM
GGGGCTACTTTATCCGTUCCTCCTAGTGGGTAGCCCCN [ARC1282],Kd,"2'-OMe U at 18, 3' idT, DPBS Mg/Ca, BSA",0.2 nM
AGCCUGGGGACCCAUGGGGGGC [ARC2344],Kd,"ARC1666 pattern without 3' idT [dI (written G) at 16,18,20, 2'-OMe 1-5,7,10-15,17,22, deoxy 6,8,9,16,18-21, PS 8/9,15/16,16/17,18/19,20/21, no 3' idT], dPBS + BSA, RT",0.41 nM
AGUCUGGGGACCCAUGGGGGACU [ARC1247],Kd,[1],192 nM
GGGGCTACTTTATCCGTTCCTCCTAGTGGGTAGCCCC [ARC1415],Kd,"2'-OMe at 1-4,7,33-37, multiple PS as printed, 3' idT [2'-OMe at 1-4,7,33-37, PS 9-10,12-13,14-15,18-19,21-22,24-25,27-28,30-31, 3' idT cap after 37 (left out)], DPBS Mg/Ca, BSA",1.2 nM
AGCCUGGGNGACNCCAUNNNGNNGNNGCUN [ARC2978],Kd,"ARC1666 chemistry + PS 11-12, 3' idT, DPBS Mg/Ca, BSA, RT",0.05 nM
GGGGCTACTTTATCCGTTCCTCCTAGTGGGTAGCCCCT [ARC1298],Kd,"2'-OMe at 34, 3' idT [2'-OMe: 34, 38 = 3' inverted dT], DPBS Mg/Ca, BSA",0.4 nM
AGCCUGGGNGACCCAUNNNGNNGNNGCUN [ARC3265],Kd,"ARC1666 chemistry with 2'-OMe G8,G9, 3' idT, DPBS Mg/Ca, BSA, RT",0.29 nM
GGGGCTACTTTATCCGTTCCTCCTAGTGGGTAGCCCC [ARC1394],Kd,"2'-OMe at 1-4,7,33-37, PS 11-12, 3' idT [2'-OMe at 1-4,7,33-37, PS linkage 11-12 (internal N = PS, not a base), 3' inverted dT cap (terminal N, left out)], DPBS Mg/Ca, BSA",8.1 nM
AGCCUGGGGACCCAUGGGGGGCU [ARC1564],Kd,"ARC1335 chemistry with dI18, 3' idT [18=dI (G parent), 24=3' inverted dT], DPBS Mg/Ca, 0.1 mg/mL BSA, RT",0.5 nM
AGCCUGGGGACCCAUGGGGGGCU [ARC1264],Kd,"2'-OMe A1,G2,G20,G21 and all C,U, rest 2'-deoxy as printed, 3' idT [2'-OMe A1,G2,C3,C4,U5,C11,C12,C13,U15,G20,G21,C22,U23, rest 2'-deoxy, 3' inverted dT at 24], DPBS Mg/Ca, 0.1 mg/mL BSA, RT",47 nM
GGGGCTACTTTATCCGTTCCTCCTAGTGGGTAGCCCCT [ARC1300],Kd,"2'-OMe at 36, 3' idT [2'-OMe: 36, 38 = 3' inverted dT], DPBS Mg/Ca, BSA",0.7 nM
AGUCUGGGGACCCAUGGGGGACU [ARC1246],Kd,[1],34 nM
GGGGCTACTTTATCCGTTCCTCCTAGTGGGTAGCCCCT [ARC656],Kd,"3' idT [38 = 3' inverted dT], dPBS Ca/Mg + BSA",0.2 nM
AGCCUGGGGACCCAUGGGGGGCU [ARC902],Kd,"dRmY (2'-OMe C,U), 7-deaza-dG2 [7-deaza-dG at 2, 2'-OMe C3,C4,U5,C11,C12,C13,U15,C22,U23, A,G 2'-deoxy], DPBS Mg/Ca, 0.1 mg/mL BSA, RT",9 nM
GGAAUCAUACACAAGACGUCAGUAAGAUUGAGUGUAUGGUUCC [rRfY minimer SEQ 95],Kd,"2'-F C and U, KD2 117.2 nM, 1xSHMCK + tRNA",4.5 nM
GGGGCTACTTTATCCGTTCCTCCTAGTGGGTAGCCCC [ARC1400],Kd,"2'-OMe at 1-4,7,33-37, PS 17-18, 3' idT [2'-OMe at 1-4,7,33-37, PS linkage 17-18 (internal N = PS, not a base), 3' inverted dT cap (terminal N, left out)], DPBS Mg/Ca, BSA",2.4 nM
AGCCUGGGGACCCAUGGGGGGCU [ARC1262],Kd,"2'-OMe C,U and G20, other A,G deoxy, 3' idT [2'-OMe: 3,4,5,11,12,13,15,20,22,23, 2'-deoxy: 1,2,6,7,8,9,10,14,16,17,18,19,21, 24 = 3' inverted dT], dPBS Ca/Mg + BSA, RT",32 nM
GGGGCTACTTTATCCGTTCCTCCTAGTGGGTAGCCCC [ARC1396],Kd,"2'-OMe at 1-4,7,33-37, PS 13-14, 3' idT [2'-OMe at 1-4,7,33-37, PS linkage 13-14 (internal N = PS, not a base), 3' inverted dT cap (terminal N, left out)], DPBS Mg/Ca, BSA",2 nM
GGGGCTACTTTATCCGTTCCTCCTAGTGGGTAGCCCC [ARC1411],Kd,"2'-OMe at 1-4,7,33-37, PS 28-29, 3' idT [2'-OMe at 1-4,7,33-37, PS 28-29, 3' idT cap after 37 (left out)], DPBS Mg/Ca, BSA",5.4 nM
GGGGTACCTTTATCCGTTTCTCCTAGTGGGGTGCCCC [DNA clone SEQ 132],Kd,,0.4 nM
AGCCUGGGNGACCCAUNNNGNNGNNGCUN [ARC3267],Kd,"ARC1666 chemistry with 2'-OMe G9,I16, 3' idT, DPBS Mg/Ca, BSA, RT",0.2 nM
GGGGCTACTTTATCCGTTCCTCCTAGTGGGTAGCCCCN [ARC1284],Kd,"2'-OMe at 20, 3' idT, DPBS Mg/Ca, BSA",0.1 nM
AGCCUGGGGACCCAUGGGGGGCU [ARC3262],Kd,"ARC1666 pattern with 2'-OMe G8, 3' idT [dI (written G) at 16,18,20, 2'-OMe 1-5,7,8,10-15,17,22,23, deoxy 6,9,16,18-21, PS 8/9,15/16,16/17,18/19,20/21, 3' inverted dT left out], dPBS Ca/Mg + BSA, RT",0.16 nM
GGGGCTACTTTATCCGUTCCTCCTAGTGGGTAGCCCCN [ARC1281],Kd,"2'-OMe U at 17, 3' idT, DPBS Mg/Ca, BSA",0.1 nM
AGCCUGGGGACCCAUGGGGGGCU [ARC1263],Kd,"2'-OMe C,U and G21, other A,G deoxy, 3' idT [2'-OMe: 3-5,11-13,15,21-23, deoxy: 1,2,6-10,14,16-20, 24 = 3' inverted dT], dPBS Ca/Mg + BSA, RT",64 nM
AGCCUGGGGACCCAUGGGGGGCU [ARC1565],Kd,"ARC1335 chemistry with dI19 as printed, 3' idT [19=dI (G parent), 24=3' inverted dT], DPBS Mg/Ca, 0.1 mg/mL BSA, RT",1.4 nM
AGCCUGGGNGACCCAUNNNGNNGNNGNCNUNN [ARC3273],Kd,"ARC2342 chemistry with 2'-OMe G8,I16, 3' idT, DPBS Mg/Ca, BSA, RT",0.86 nM
AGCCUGGGGACCCAUGGGGGGCU [ARC1253],Kd,"2'-OMe C,U and G7, other A,G deoxy, 3' idT [2'-OMe: 3,4,5,7,11,12,13,15,22,23, 2'-deoxy: 1,2,6,8,9,10,14,16,17,18,19,20,21, 24 = 3' inverted dT], dPBS Ca/Mg + BSA, RT",2 nM
AGCCUGGGNGACCCAUNNNGNNGNNGNCNUNN [ARC2342],Kd,"ARC1666 chemistry + PS 21-22,22-23,23-idT, 3' idT, second independent measurement 0.04 nM",0.19 nM
GGGGCTACTTTAUCCGTTCCTCCTAGTGGGTAGCCCC [ARC1277],Kd,"DNA with 2'-OMe U13, 3' idT [2'-OMe U13, 3' inverted dT38], dPBS Ca/Mg + BSA",6 nM
AGCCUGGGGACCCAUGGGGGGCU [ARC1332],Kd,"2'-OMe G2,A10,A14 and all C,U, rest 2'-deoxy, 3' idT [2'-OMe G2,C3,C4,U5,A10,C11,C12,C13,A14,U15,C22,U23, 3' inverted dT at 24], DPBS Mg/Ca, 0.1 mg/mL BSA, RT",0.5 nM
GCGGGCAAATTCATCCGTCCCTCCTAGTGGTTTGCCC [DNA clone SEQ 147],Kd,,0.5 nM
AGCCUGGGGACCCAUGGGGGGCU [ARC1260],Kd,"2'-OMe C,U and G18, other A,G deoxy, 3' idT [2'-OMe: 3,4,5,11,12,13,15,18,22,23, 2'-deoxy: 1,2,6,7,8,9,10,14,16,17,19,20,21, 24 = 3' inverted dT], dPBS Ca/Mg + BSA, RT",102 nM
AGCCUGGGGACCCAUGGGGGGCU [ARC906],Kd,"dRmY, 7-deaza-dG at G9 [7-deaza-dG: 9, 2'-OMe: 3-5,11-13,15,22,23, deoxy: all A,G], dPBS Ca/Mg + BSA, RT",88 nM
GGGAGAGGAGAGAACGUUCUACACUCUGGGGACCCGUGGGGGAGUGCAGCAACGCUGUCGAUCGAUCGAUCGAUG [ARC2005],Kd,"dRmY: 2'-deoxy A,G, 2'-OMe C,U, error 3, dPBS Ca/Mg + BSA, RT",5 nM
AGCCUGGGNGACCCAUNNNGNNGNNGNCUN [ARC2340],Kd,"ARC1666 pattern plus PS between G21 and C22, 3' idT, dPBS Ca/Mg + BSA, RT",0.08 nM
GGGGCTACTUTATCCGTTCCTCCTAGTGGGTAGCCCC [ARC1274],Kd,"2'-OMe U at 10, 3' idT [10 (2'-OMe U), 38 (3' inverted dT)], DPBS Mg/Ca, BSA",2 nM
GGGGCTACTTTATCCGTTCCTCCTAGTGGGTAGCCCCT [ARC1267],Kd,"2'-OMe at 3, 3' idT [3 (2'-OMe G), 38 (3' inverted dT)], DPBS Mg/Ca, BSA",0.1 nM
AGCCUGGGNGACCCAUNNNGNNGNNNGCUN [ARC2983],Kd,"ARC1666 chemistry + PS 19-20, 3' idT, DPBS Mg/Ca, BSA, RT",0.02 nM
AGCCUGGGGACCCAUGGGGGGCU [ARC1562],Kd,"ARC1335 chemistry with dI16, G17 deoxy as printed, 3' idT [16=dI (G parent), 17=deoxy G, 24=3' inverted dT], DPBS Mg/Ca, 0.1 mg/mL BSA, RT",0.6 nM
AGCCUGGGGACCCAUGGGGGGCU [ARC1252],Kd,"2'-OMe C,U and G6, other A,G deoxy, 3' idT [2'-OMe: 3,4,5,6,11,12,13,15,22,23, 2'-deoxy: 1,2,7,8,9,10,14,16,17,18,19,20,21, 24 = 3' inverted dT], dPBS Ca/Mg + BSA, RT",98 nM
GGGGCTACTTTATCCGTTCCTCCTAGTGGGTAGCCCC [ARC1392],Kd,"2'-OMe at 1-4,7,33-37, PS 9-10, 3' idT [2'-OMe at 1-4,7,33-37, PS linkage 9-10 (internal N = PS, not a base), 3' inverted dT cap (terminal N, left out)], DPBS Mg/Ca, BSA",3 nM
AGCCUGGGNGANCCCAUNNNGNNGNNGCUN [ARC2977],Kd,"ARC1666 chemistry + PS 10-11, 3' idT, DPBS Mg/Ca, BSA, RT",0.05 nM
